Measurements reported in patent US20240279309A1 (Molecular Partners, published 2024).

Columns and labels:
Assay in all cases: cell-based or functional assay
[1] = target: T1, CD40 receptor on cells (HEK293 reporter cells expressing CD40; primary human B cells) (human, UniProt P25942 21-277)
[2] = target: T1, CD40 receptor on cells (HEK293 reporter …); remark: listed apart in the source
[3] = target: T1, CD40 receptor on cells (HEK293 reporter …); remark: listed apart in the source

T1 sequence (P25942 21-277): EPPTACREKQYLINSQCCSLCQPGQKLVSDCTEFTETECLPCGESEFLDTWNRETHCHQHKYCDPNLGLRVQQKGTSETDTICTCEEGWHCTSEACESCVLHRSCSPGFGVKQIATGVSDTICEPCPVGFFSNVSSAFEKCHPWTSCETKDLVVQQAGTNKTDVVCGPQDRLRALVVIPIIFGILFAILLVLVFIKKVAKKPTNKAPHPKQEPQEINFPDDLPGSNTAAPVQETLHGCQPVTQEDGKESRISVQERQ

Binder | EC50 [nM], % CD86, human B cells with FAP-CHO, w/o HSA [1] [nM] | EC50 [nM], MFI CD86, human B cells with FAP-CHO, w/o HSA [1] [nM] | Efficacy [MFI at highest dose], MFI CD86, human B cells with FAP-CHO, w/o HSA [2] [MFI] | Efficacy at highest dose, % CD86, human B cells with FAP-CHO, w/o HSA [2] [%] | Efficacy [MFI at highest dose], MFI CD86, human B cells with WT-CHO (no FAP), w/o HSA [3] [MFI] | Efficacy at highest dose, % CD86, human B cells with WT-CHO (no FAP), w/o HSA [3] [%] | EC50 [nM], % CD86, human B cells with FAP-CHO, w HSA [1] [nM] | EC50 [nM], MFI CD86, human B cells with FAP-CHO, w HSA [1] [nM] | Efficacy [MFI at highest dose], MFI CD86, human B cells with FAP-CHO, w HSA [2] [MFI] | Efficacy at highest dose, % CD86, human B cells with FAP-CHO, w HSA [2] [%] | Efficacy [MFI at highest dose], MFI CD86, human B cells with WT-CHO (no FAP), w HSA [3] [MFI] | Efficacy at highest dose, % CD86, human B cells with WT-CHO (no FAP), w HSA [3] [%]
SMA105 (SEQ ID NO: 106) (designed binder) MRGSHHHHHHGSDLGEKLLVAALYGQDDEVRELLKAGADVNAKDQWGLTPLHKAALQGHLEIVEVLLKAGADVNAKDERGHTPLHWAARFGHLEIVEVLLKAGADVNAQDQKGYTPADLAALWGHEDIAEVLQKAAGSPTPTPTTPTPTPTTPTPTPTGSDLGKKLLQAARAGQLDEVRELLKAGADVNAKDTWGFTPLHIAAESGHLEIVEVLLKAGADVNAKDVQGRTPLHIAAHSGHLEIVEVLLKAGADVNAKDFRGWTPLHLAAWSGHLEIVEILLKAGADVNAQDKSGKTPADLAARAGHQDIAEVLQKAAGSPTPTPTTPTPTPTTPTPTPTGSDLGKKLLQAARAGQLDEVRELLKAGADVNAKDTWGFTPLHIAAESGHLEIVEVLLKAGADVNAKDVQGRTPLHIAAHSGHLEIVEVLLKAGADVNAKDFRGWTPLHLAAWSGHLEIVEILLKAGADVNAQDKSGKTPADLAARAGHQDIAEVLQKAAGSPTPTPTTPTPTPTTPTPTPTGSDLGKKLLQAARAGQLDEVRELLKAGADVNAKDTWGFTPLHIAAESGHLEIVEVLLKAGADVNAKDVQGRTPLHIAAHSGHLEIVEVLLKAGADVNAKDFRGWTPLHLAAWSGHLEIVEILLKAGADVNAQDKSGKTPADLAARAGHQDIAEVLQKAA | 0.11 | 0.33 | 5560 | 87.2 | 672 | 69.2 |  |  |  |  |  | 
SMA091 (SEQ ID NO: 103) (designed binder) MRGSHHHHHHGSDLGKKLLEAARAGQDDEVRELLKAGADVNAKDYFSHTPLHLAARNGHLKIVEVLLKAGADVNAKDFAGKTPLHLAAADGHLEIVEVLLKAGADVNAQDIFGKTPADIAADAGHEDIAEVLQKAAGSPTPTPTTPTPTPTTPTPTPTGSDLGEKLLVAALYGQDDEVRELLKAGADVNAKDQWGLTPLHKAALQGHLEIVEVLLKAGADVNAKDERGHTPLHWAARFGHLEIVEVLLKAGADVNAQDQKGYTPADLAALWGHEDIAEVLQKAAGSPTPTPTTPTPTPTTPTPTPTGSDLGKKLLQAARAGQLDEVRELLKAGADVNAKDTWGFTPLHIAAESGHLEIVEVLLKAGADVNAKDVQGRTPLHIAAHSGHLEIVEVLLKAGADVNAKDFRGWTPLHLAAWSGHLEIVEILLKAGADVNAQDKSGKTPADLAARAGHQDIAEVLQKAAGSPTPTPTTPTPTPTTPTPTPTGSDLGKKLLQAARAGQLDEVRELLKAGADVNAKDTWGFTPLHIAAESGHLEIVEVLLKAGADVNAKDVQGRTPLHIAAHSGHLEIVEVLLKAGADVNAKDFRGWTPLHLAAWSGHLEIVEILLKAGADVNAQDKSGKTPADLAARAGHQDIAEVLQKAA | 0.76 | 3.93 | 6230 | 78.2 | 290 | 47.8 | 2.98 | 8.05 | 2980 | 75.6 | 296 | 43.1
AS579 (SEQ ID NO: 105) (designed binder) MRGSHHHHHHGSDLGKKLLEAARAGQDDEVRELLKAGADVNAKDYFSHTPLHLAARNGHLKIVEVLLKAGADVNAKDFAGKTPLHLAAADGHLEIVEVLLKAGADVNAQDIFGKTPADIAADAGHEDIAEVLQKAAGSPTPTPTTPTPTPTTPTPTPTGSDLGKKLLEAARAGQDDEVRELLKAGADVNAKDYFSHTPLHLAARNGHLKIVEVLLKAGADVNAKDFAGKTPLHLAAADGHLEIVEVLLKAGADVNAQDIFGKTPADIAADAGHEDIAEVLQKAAGSPTPTPTTPTPTPTTPTPTPTGSDLGEKLLVAALYGQDDEVRELLKAGADVNAKDQWGLTPLHKAALQGHLEIVEVLLKAGADVNAKDERGHTPLHWAARFGHLEIVEVLLKAGADVNAQDQKGYTPADLAALWGHEDIAEVLQKAAGSPTPTPTTPTPTPTTPTPTPTGSDLGKKLLQAARAGQLDEVRELLKAGADVNAKDTWGFTPLHIAAESGHLEIVEVLLKAGADVNAKDVQGRTPLHIAAHSGHLEIVEVLLKAGADVNAKDFRGWTPLHLAAWSGHLEIVEILLKAGADVNAQDKSGKTPADLAARAGHQDIAEVLQKAAGSPTPTPTTPTPTPTTPTPTPTGSDLGKKLLQAARAGQLDEVRELLKAGADVNAKDTWGFTPLHIAAESGHLEIVEVLLKAGADVNAKDVQGRTPLHIAAHSGHLEIVEVLLKAGADVNAKDFRGWTPLHLAAWSGHLEIVEILLKAGADVNAQDKSGKTPADLAARAGHQDIAEVLQKAA | 2.27 | 10 | 4860 | 83 | 252 | 42 | 10.2 | 23.1 | 1780 | 71.9 | 242 | 40.1
